From the supplement of paper PMC9170038

System: MS2 coat protein
Assay: apparent KD of MS2 coat protein; designed switch direction (-1 OFF switch, 1 ON switch): -1; higher = weaker reporter binding
Summary of the method: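 Three titration conditions were used: no input, 200 uM small-molecule ligand, and an oligonucleotide input. In each, SNAP-549-labelled MS2 coat protein was raised from 0.7 or 1.5 nM, doubling, to 3 µM over designed RNA switches transcribed on Illumina chips by stalled E. coli RNA polymerase. Curve fits of normalised cluster fluorescence gave values whose per-design median over clusters is the apparent KD.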

[1] = Eterna round: R95, input ligand: microRNA oligo, concentration not stated
[2] = input ligand: microRNA oligo, concentration not stated

Row | Sequence | apparent KD of MS2 coat protein (input ligand: FMN 200 uM) [nM] | apparent KD of MS2 coat protein (input ligand: none) [nM] | apparent KD of MS2 coat protein (Eterna round: R95, input ligand: FMN 200 uM) [nM] | apparent KD of MS2 coat protein [1] [nM] | apparent KD of MS2 coat protein (Eterna round: R95, input ligand: none) [nM] | apparent KD of MS2 coat protein [2] [nM]
1 | GGCAUGCAAGGAUAUACUUGAAGUGAUGUUCGAUAAAGUCUACUUGAGGAUCACCCAAGUAGAAGGUGCAUGCC [Exclusion 2 (Mod5.1 JL EX2 4.74 Vienna UCT mod of Mamaed)] (Eterna round: R97, puzzle: Exclusion 2) | 108 | 198 | – | – | – | –
2 | GGCAUGUAAGGAUAUGCCACUGAGUGCUUUGCGCUCAGAAAGCAGAAGGUACAUGAGGAUCACCCAUGUGAUAA [jl-ex4-4.53 ViennaUCT mod] (Eterna round: R97, puzzle: Exclusion 4) | 945 | 650 | – | – | – | –
3 | GGCCCUAAGGUCAGAUUCACAAGCUUUUUGCUCGUUUUAACAUGAGGAUCACCCAUGUCUAGUGGAUCUGAUCCUCU [Sensor v3, turn-off variant 2 (MOD of Indiso v.1)] (puzzle: Sensor v3, turn-off variant 2) | – | – | 27.5 | 14.9 | 31.2 | –
4 | GGCCUUCCGCGAGCUUUUUACAUGAGGAUCACCCAUGUGGUUUUUAGUCUUAUGCCCGGGCCCGUGUGGGCCCGGGC [-33.7, -54.7, A 12%] (Eterna round: R97, puzzle: Sensor, turn-off variant 1) | 27.6 | 29.2 | – | – | – | –
5 | GGCGAGCAAGGAUAUGCAGGGUAUCCGACUCGCAGCGGGCGACAUGAGGAUCACCCAUGUAGAAGGUGCACGCG [EX2 A.6] (Eterna round: R97, puzzle: Exclusion 2) | 23.9 | 31 | – | – | – | –
6 | GGCUAGUCAGGAUAUACGAACAUGUCAAAAGACGUGAAGGGACAUGAGGAUCACCCAUGUAGAAGGGACUAGCG [salish99_ex2_r3_002] (puzzle: Exclusion 2) | – | – | – | 25 | – | –
7 | GGCUGCAAUGUAGGAUAUCUGCACGUGUAGUGCAGAGAAGGACAUGAGGAUCACCCAUGUAUAGUAGCUUCGGCUACAGCAGCC [ENG1-D3] (Eterna round: R96, puzzle: Exclusion NG 1) | 24.6 | 18.2 | – | – | – | 12.7
8 | GGGAAAGAGGUAAGGAUAUCCUCCUCGAAAGAGGAGGAGAAGGUACAUGAGGAUCACCCAUGUAAGAAGAAGAG [AK-MS2ROC-r4-Bmoexclusion4-13] (Eterna round: R97, puzzle: Brourd's mod of Exclusion 4) | 25 | 18.6 | – | – | – | –
9 | GGGAAGAACCAACAAGUAUACAUGAGGAUCACCCAUGUUCCUAGUGGGUAUGUAAAGAUUAAGAGAGCUCGUCUUAU [AK-miRNA-r3-10] (Eterna round: R97, puzzle: Sensor, turn-off variant 1) | 66.9 | 75.3 | – | – | – | –
10 | GGGCCCGGAGGAUAUACAAUGGGCCCGGGAAACCGGGUUUUACAUGAGGAUCACCCAUGUAGAAGGCCGGGCCC [-42.8, -38.99 kcal A 24%, 5a,0] (Eterna round: R97, puzzle: Exclusion 2) | 15.6 | 14.6 | – | – | – | –
11 | GGGCCCGGAGGAUAUACAUGAGGAUCACCCAUGUAUUUGGGCCCUAUUGGGCCCGGGUGUAGAAGGCCGGGCCC [-42.1, -39.5 kcal, A 19%, 5abis,0] (Eterna round: R97, puzzle: Exclusion 3) | 17.3 | 14.6 | – | – | – | –
12 | GGGCCGGCCGGAGGAUAUGCGGCUUGGUUGGUCGGUGGGCCGGCCGGGACAUGAGGAUCACCCAUGUAGAAGGCUGGUUGGUUC [less GC, MS2 in another position, A 14%] (Eterna round: R96, puzzle: Exclusion NG 2) | 58.2 | 60.7 | – | – | – | 42.8
13 | GGGCGGGCAGGAUAUACAUGAGGAUCACCCAUGUAUGUCCAAAGACAUACAUUCUUAUGUAGAAGGGCCCGCCC [Ex 4] (Eterna round: R97, puzzle: Exclusion 3) | 142 | 26.6 | – | – | – | –
